{"source": "paper PMC5499549", "about": "“DNA substrate recognition and processing by the full-length human UPF1 helicase”", "key": {"hUPF1 (full-length) [1]": {"target": "T1, hUPF1 (full-length) (Homo sapiens, UniProt Q92900-2 1-1118)", "T1 sequence": "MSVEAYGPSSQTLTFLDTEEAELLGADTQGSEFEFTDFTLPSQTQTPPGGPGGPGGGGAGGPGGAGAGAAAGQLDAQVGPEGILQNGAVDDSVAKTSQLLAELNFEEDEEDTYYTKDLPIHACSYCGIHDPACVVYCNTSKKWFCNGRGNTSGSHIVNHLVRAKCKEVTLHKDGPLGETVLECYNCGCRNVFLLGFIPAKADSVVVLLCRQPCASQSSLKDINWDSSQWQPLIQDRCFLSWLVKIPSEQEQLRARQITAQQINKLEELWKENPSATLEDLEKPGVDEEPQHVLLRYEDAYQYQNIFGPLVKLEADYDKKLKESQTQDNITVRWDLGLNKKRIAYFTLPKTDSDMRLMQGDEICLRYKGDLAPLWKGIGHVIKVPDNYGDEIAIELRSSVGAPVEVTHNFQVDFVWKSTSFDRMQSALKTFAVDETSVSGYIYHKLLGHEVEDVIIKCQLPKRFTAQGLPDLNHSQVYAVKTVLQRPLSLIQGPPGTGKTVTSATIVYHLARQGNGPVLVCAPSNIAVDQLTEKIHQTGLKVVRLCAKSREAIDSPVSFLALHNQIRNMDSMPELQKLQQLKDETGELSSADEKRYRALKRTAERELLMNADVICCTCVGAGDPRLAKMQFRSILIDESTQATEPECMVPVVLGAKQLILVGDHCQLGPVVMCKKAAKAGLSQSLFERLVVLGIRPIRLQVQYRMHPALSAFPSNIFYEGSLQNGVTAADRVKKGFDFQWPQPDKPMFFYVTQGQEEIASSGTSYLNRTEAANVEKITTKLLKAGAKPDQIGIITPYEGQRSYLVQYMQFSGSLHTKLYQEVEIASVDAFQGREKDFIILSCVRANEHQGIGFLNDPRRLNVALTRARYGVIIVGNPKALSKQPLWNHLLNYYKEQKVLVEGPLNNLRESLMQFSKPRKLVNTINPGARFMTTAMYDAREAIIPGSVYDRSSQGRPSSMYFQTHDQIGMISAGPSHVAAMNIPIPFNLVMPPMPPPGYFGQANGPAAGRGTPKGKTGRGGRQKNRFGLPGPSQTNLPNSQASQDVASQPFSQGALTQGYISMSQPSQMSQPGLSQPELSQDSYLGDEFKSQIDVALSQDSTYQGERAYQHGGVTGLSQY", "experiment": "MST; fit up to 313 nM hUPF1; 25 mM HEPES-NaOH pH 7.2, 135 mM NaCl, 2 mM DTT, 1 mg/ml acetylated BSA, 0.1% NP40, 20 min; EMSA 20 C, MST 22 C (20 nM DNA); no nucleotide cofactor or Mg2+ unles", "conditions": "protein: recombinant; tags: GST and His tags removed (thrombin, TEV); residual ENLYFQ linker likely at C-terminus; label: 5' Alexa 647"}, "hUPF1 (full-length) [2]": {"target": "T1, hUPF1 (full-length)", "experiment": "EMSA; no nucleotide cofactor; 25 mM HEPES-NaOH pH 7.2, 135 mM NaCl, 2 mM DTT, 1 mg/ml acetylated BSA, 0.1% NP40, 20 min; EMSA 20 C, MST 22 C (20 nM DNA); no nucleotide cofactor or Mg2+ unles", "conditions": "protein: recombinant; tags: GST and His tags removed (thrombin, TEV); residual ENLYFQ linker likely at C-terminus; label: 5' 32P (EMSA)"}, "hUPF1 (full-length) [3]": {"target": "T1, hUPF1 (full-length)", "experiment": "competition; vs 0.25 nM 32P-DNA35, 10 nM hUPF1; 25 mM HEPES-NaOH pH 7.2, 135 mM NaCl, 2 mM DTT, 1 mg/ml acetylated BSA, 0.1% NP40, 20 min; EMSA 20 C, MST 22 C (20 nM DNA); no nucleotide cofactor or Mg2+ unles", "conditions": "protein: recombinant, tags: GST and His tags removed (thrombin, TEV), residual ENLYFQ linker likely at C-terminus"}, "hUPF1 (full-length) [4]": {"target": "T1, hUPF1 (full-length)", "experiment": "EMSA; 25 mM HEPES-NaOH pH 7.2, 135 mM NaCl, 2 mM DTT, 1 mg/ml acetylated BSA, 0.1% NP40, 20 min; EMSA 20 C, MST 22 C (20 nM DNA); no nucleotide cofactor or Mg2+ unles", "conditions": "protein: recombinant; tags: GST and His tags removed (thrombin, TEV); residual ENLYFQ linker likely at C-terminus; label: 5' 32P (EMSA)"}, "hUPF1 (full-length) [5]": {"target": "T1, hUPF1 (full-length)", "experiment": "MST; second experimental group; fit up to 156 nM; 25 mM HEPES-NaOH pH 7.2, 135 mM NaCl, 2 mM DTT, 1 mg/ml acetylated BSA, 0.1% NP40, 20 min; EMSA 20 C, MST 22 C (20 nM DNA); no nucleotide cofactor or Mg2+ unles", "conditions": "protein: recombinant; tags: GST and His tags removed (thrombin, TEV); residual ENLYFQ linker likely at C-terminus; label: 5' Alexa 647"}, "hUPF1 (full-length) [6]": {"target": "T1, hUPF1 (full-length)", "experiment": "MST; fit up to 156 nM hUPF1; 25 mM HEPES-NaOH pH 7.2, 135 mM NaCl, 2 mM DTT, 1 mg/ml acetylated BSA, 0.1% NP40, 20 min; EMSA 20 C, MST 22 C (20 nM DNA); no nucleotide cofactor or Mg2+ unles", "conditions": "protein: recombinant; tags: GST and His tags removed (thrombin, TEV); residual ENLYFQ linker likely at C-terminus; label: 5' Alexa 647"}, "hUPF1 (full-length) [7]": {"target": "T1, hUPF1 (full-length)", "experiment": "EMSA; most or all bound at top concentrations; multimerization; 25 mM HEPES-NaOH pH 7.2, 135 mM NaCl, 2 mM DTT, 1 mg/ml acetylated BSA, 0.1% NP40, 20 min; EMSA 20 C, MST 22 C (20 nM DNA); no nucleotide cofactor or Mg2+ unles", "conditions": "protein: recombinant; tags: GST and His tags removed (thrombin, TEV); residual ENLYFQ linker likely at C-terminus; label: 32P"}, "hUPF1 (full-length) [8]": {"target": "T1, hUPF1 (full-length)", "experiment": "MST; 25 mM HEPES-NaOH pH 7.2, 135 mM NaCl, 2 mM DTT, 1 mg/ml acetylated BSA, 0.1% NP40, 20 min; EMSA 20 C, MST 22 C (20 nM DNA); no nucleotide cofactor or Mg2+ unles", "conditions": "protein: recombinant; tags: GST and His tags removed (thrombin, TEV); residual ENLYFQ linker likely at C-terminus; label: 5' Alexa 647"}, "hUPF1 (full-length) [9]": {"target": "T1, hUPF1 (full-length)", "experiment": "EMSA; equivalent to G4 ss precursor; 25 mM HEPES-NaOH pH 7.2, 135 mM NaCl, 2 mM DTT, 1 mg/ml acetylated BSA, 0.1% NP40, 20 min; EMSA 20 C, MST 22 C (20 nM DNA); no nucleotide cofactor or Mg2+ unles", "conditions": "protein: recombinant; tags: GST and His tags removed (thrombin, TEV); residual ENLYFQ linker likely at C-terminus; label: 32P"}, "hUPF1 (full-length) [10]": {"target": "T1, hUPF1 (full-length)", "experiment": "EMSA; 25 mM HEPES-NaOH pH 7.2, 135 mM NaCl, 2 mM DTT, 1 mg/ml acetylated BSA, 0.1% NP40, 20 min; EMSA 20 C, MST 22 C (20 nM DNA); no nucleotide cofactor or Mg2+ unles", "conditions": "protein: recombinant; tags: GST and His tags removed (thrombin, TEV); residual ENLYFQ linker likely at C-terminus; label: 32P (EMSA)"}, "hUPF1 (full-length) [11]": {"target": "T1, hUPF1 (full-length)", "experiment": "MST; biphasic, low-amplitude first phase; 25 mM HEPES-NaOH pH 7.2, 135 mM NaCl, 2 mM DTT, 1 mg/ml acetylated BSA, 0.1% NP40, 20 min; EMSA 20 C, MST 22 C (20 nM DNA); no nucleotide cofactor or Mg2+ unles", "conditions": "protein: recombinant; tags: GST and His tags removed (thrombin, TEV); residual ENLYFQ linker likely at C-terminus; label: 5' Alexa 647"}}}
{"binder": "TTTTTTTTTTTTTTTTTTTTTTTTT (ssDNA)", "note": "[d(T)25-Alexa647]", "values": [{"measurement": "Kd", "setting": "hUPF1 (full-length) [1]", "value": "5.98 ± 0.51", "unit": "nM"}]}
{"binder": "TTTTTTTTTTTTTTTTTTTTTTTTTTTTTTTTTTT (ssDNA)", "note": "[d(T)35]", "values": [{"measurement": "Kd", "setting": "hUPF1 (full-length) [2]", "value": "~1", "unit": "nM"}, {"measurement": "IC50", "setting": "hUPF1 (full-length) [3]; label: 5' 32P (EMSA)", "value": 11.5, "unit": "nM"}, {"measurement": "binding signal", "setting": "hUPF1 (full-length) [4]", "value": "~2 fold higher affinity than (U)35"}]}
{"binder": "TTTTTTTTTTTTTTTTTTTTTTTTTTTTTTTTTTT (ssDNA)", "note": "[d(T)35-Alexa647]", "values": [{"measurement": "Kd", "setting": "hUPF1 (full-length) [5]", "value": "6.01 ± 0.85", "unit": "nM"}, {"measurement": "Kd", "setting": "hUPF1 (full-length) [6]", "value": "4.05 ± 0.58", "unit": "nM"}]}
{"binder": "d(T)55 (ssDNA) DNA: TTTTTTTTTTTTTTTTTTTTTTTTTTTTTTTTTTTTTTTTTTTTTTTTTTTTTTT", "values": [{"measurement": "binding result", "setting": "hUPF1 (full-length) [7]", "value": "binds"}]}
{"binder": "TTTTTTTTTTTTTTT (ssDNA)", "note": "[d(T)15-Alexa647]", "values": [{"measurement": "Kd", "setting": "hUPF1 (full-length) [8]", "value": "39.4 ± 3.6", "unit": "nM"}]}
{"binder": "TTTTTTTTTTTTTTTTTT (ssDNA)", "note": "[d(T)18]", "values": [{"measurement": "binding result", "setting": "hUPF1 (full-length) [9]", "value": "binds"}]}
{"binder": "AAAAAAAAAAAAAAAAAAAAAAAAAAAAAAAAAAA (ssRNA)", "note": "[(A)35]", "values": [{"measurement": "binding signal", "setting": "hUPF1 (full-length) [10]", "value": "~5 fold higher affinity than (C)35"}, {"measurement": "IC50", "setting": "hUPF1 (full-length) [3]; label: 32P (EMSA)", "value": 172, "unit": "nM"}]}
{"binder": "AAAAAAAAAAAAAAAAAAAAAAAAAAAAAAAAAAA (ssDNA)", "note": "[d(A)35-Alexa647]", "values": [{"measurement": "Kd", "setting": "hUPF1 (full-length) [11]", "value": "4200 ± 3730", "unit": "nM"}]}
{"binder": "UUUUUUUUUUUUUUUUUUUUUUUUUUUUUUUUUUU (ssRNA)", "note": "[(U)35]", "values": [{"measurement": "IC50", "setting": "hUPF1 (full-length) [3]; label: 32P (EMSA)", "value": 12.3, "unit": "nM"}]}
{"binder": "TTTTTTTTTTTTTTTTTTTTTTTTTTTTTTTTTTTTTTTTTTTTT (ssDNA)", "note": "[d(T)45]", "values": [{"measurement": "binding result", "setting": "hUPF1 (full-length) [7]", "value": "binds"}]}
{"binder": "CACAAGCAACCAATCGGTTCGACACTCATACTGGC (ssDNA)", "note": "[DNA35]", "values": [{"measurement": "IC50", "setting": "hUPF1 (full-length) [3]; label: 5' 32P (EMSA)", "value": 31.5, "unit": "nM"}, {"measurement": "binding signal", "setting": "hUPF1 (full-length) [4]", "value": "~3 fold higher affinity than RNA35"}]}
{"binder": "CACAAGCAACCAATCGGTTCGACACTCATACTGGC (ssDNA)", "note": "[DNA35-Alexa647]", "values": [{"measurement": "Kd", "setting": "hUPF1 (full-length) [6]", "value": "9.8 ± 1", "unit": "nM"}]}
{"binder": "CACAAGCAACCAAUCGGUUCGACACUCAUACUGGC (ssRNA)", "note": "[RNA35]", "values": [{"measurement": "IC50", "setting": "hUPF1 (full-length) [3]; label: 32P (EMSA)", "value": 50.4, "unit": "nM"}]}
